In the RNAGym collection of RNA variant scans (doi:10.1021/acssynbio.7b00057):

B1: Pistol ribozyme (parent)
chain: GGGUCGUUGUUCCAUAAUCGCGUGGAUAUGGCACGCAAGUUUCUACCGGGCACCGUAAAUGUCCGACUGGAGCCGUUCGGGCGGCUAUAAACAGACCUCAGGCCCGAAGCGUGGCGGCACCUGCCGCCGGUGGUAAAAAAGAUCGGAAGAGCACACGUCU

Variants of: B1
Assay: aptazyme ON/OFF ratio, guanine; higher = stronger switching; co-transcriptional cleavage with and without guanine

Row | Variant | aptazyme ON/OFF ratio
1 | U7G U8G G9C U10A U11G C12A C13U | 1.05
2 | U7G U8G G9C U10A U11G C12A C13G | 1.12
3 | U7G U8G G9C U10A U11G C12A C13A | 1.07
4 | U7G U8G G9C U10A U11G C12G C13A | 1.1
5 | U7G U8G G9C U10A U11G C12G C13G | 1.07
6 | U7G U8G G9C U10A U11G C12G C13U | 1.06
7 | U7G U8G G9C U10A U11G | 1.11
8 | U7G U8G G9C U10A U11C | 1.04
9 | U7G U8G G9C U10A U11A | 1.67
10 | U7G U8G G9A U10G U11C C12A C13U | 1.27
11 | U7G U8G G9A U10G U11C C12A C13A | 1.17
12 | U7G U8G G9A U10G U11C C12A C13G | 1.15
13 | U7G U8G G9A U11C C12A C13U | 1.41
14 | U7G U8G G9A U11C C12A C13G | 1.15
15 | U7G U8G G9A U11C C12A C13A | 1.39
16 | U7G U8G G9A U11A C12G C13G | 1.06
17 | U7G U8G G9A U11A C12G C13U | 1.15
18 | U7G U8G G9A U11A C12G C13A | 1.03
19 | U7G U8G G9C U10A U11C C13A | 1.07
20 | U7G U8G G9C U10A U11C C13G | 1.05
21 | U7G U8G G9C U10A U11C C13U | 1.07

Row | Variant | aptazyme ON/OFF ratio
22 | U7G U8G G9C U10A C12U C13G | 1.03
23 | U7G U8G G9C U10A C12U C13A | 1.01
24 | U7G U8G G9C U10A C12U C13U | 1.04
25 | U7G U8G G9A U10G U11G C13G | 1.41
26 | U7G U8G G9A U10G U11G C13U | 1.22
27 | U7G U8G G9A U10G U11G C13A | 1.13
28 | U7G U8G G9C U10A U11C C12G C13U | 1.06
29 | U7G U8G G9C U10A U11C C12G C13G | 1.05
30 | U7G U8G G9C U10A U11C C12G C13A | 1.06
31 | U7G U8G G9C C13U | 1.47
32 | U7G U8G G9C C13G | 1.16
33 | U7G U8G G9C C13A | 1.42
34 | U7G U8G G9A U10G U11A C12U C13U | 1.07
35 | U7G U8G G9A U10G U11A C12U C13G | 1.21
36 | U7G U8G G9A U10G U11A C12U C13A | 1.15
37 | U7G U8G G9A U11C C13A | 1.25
38 | U7G U8G G9A U11C C13U | 1.28
39 | U7G U8G G9A U11C C13G | 1.12
40 | U7G U8G G9A U10G U11G C12A C13G | 1.15
41 | U7G U8G G9A U10G U11G C12A C13A | 1.1
42 | U7G U8G G9A U10G U11G C12A C13U | 1.17

Row | Variant | aptazyme ON/OFF ratio
43 | U7G U8G G9A U11G C13U | 1.3
44 | U7G U8G G9A U11G C13A | 1.26
45 | U7G U8G G9A U11G C13G | 1.17
46 | U7G U8G G9A U10G U11A C13A | 1.11
47 | U7G U8G G9A U10G U11A C13U | 1.12
48 | U7G U8G G9A U10G U11A C13G | 1.11
49 | U7G U8G G9C U10A U11C C12A C13A | 1.07
50 | U7G U8G G9C U10A U11C C12A C13G | 1.06
51 | U7G U8G G9C U10A U11C C12A C13U | 1.04
52 | U7G U8G G9C U10A U11A C12G C13G | 1.05
53 | U7G U8G G9C U10A U11A C12G C13A | 1.08
54 | U7G U8G G9C U10A U11A C12G C13U | 1.02
55 | U7G U8G G9A U11A C12U | 1.44
56 | U7G U8G G9A U11A C12A | 1.38
57 | U7G U8G G9A U11A C12G | 1.12
58 | U7G U8G G9C C12U C13U | 1.12
59 | U7G U8G G9C C12U C13G | 1.22
60 | U7G U8G G9C C12U C13A | 1.11
61 | U7G U8G G9A U10G U11C C13U | 1.08
62 | U7G U8G G9A U10G U11C C13G | 1.08
63 | U7G U8G G9A U10G U11C C13A | 1.15

Row | Variant | aptazyme ON/OFF ratio
64 | U7G U8G G9A U11C C12G C13U | 1.35
65 | U7G U8G G9A U11C C12G C13A | 1.21
66 | U7G U8G G9A U11C C12G C13G | 1.11
67 | U7G U8G G9A U10G U11C C12U C13U | 1.29
68 | U7G U8G G9A U10G U11C C12U C13G | 1.27
69 | U7G U8G G9A U10G U11C C12U C13A | 1.07
70 | U7G U8G G9A U11G | 1.91
71 | U7G U8G G9A U11A | 2.46
72 | U7G U8G G9A U11C | 1.54
73 | U7G U8G G9A U10G U11G C12G C13U | 1.11
74 | U7G U8G G9A U10G U11G C12G C13A | 1.23
75 | U7G U8G G9A U10G U11G C12G C13G | 1.25
76 | U7G U8G G9C U10A U11A C12U | 1.07
77 | U7G U8G G9C U10A U11A C12G | 1.07
78 | U7G U8G G9C U10A U11A C12A | 1.07
79 | U7G U8G G9C C12G C13U | 1.35
80 | U7G U8G G9C C12G C13G | 1.13
81 | U7G U8G G9C C12G C13A | 1.28
82 | U7G U8G G9A U11G C12A C13A | 0.999
83 | U7G U8G G9A U11G C12A C13G | 1.09
84 | U7G U8G G9A U11G C12A C13U | 1.18
